In PMC3551926, “Dact2 Represses PITX2 Transcriptional Activation and Cell Proliferation through Wnt/beta-Catenin Signaling during Odontogenesis” (PLoS ONE, 2013):

Molecular target: GST-PITX2A-FL (full length) (UniProt Q99697-3 1-271)
Test: cell-based or functional assay

B1: Dact2, purified bacterially expressed protein (natural protein, mouse, UniProt Q7TN08 1-757, looked up)
chain: MWAPSGQGPAGWDRRRVGARLRAALAGLQELQGLRATQQARVRGALGLHPAPGPRGQELRLEAALTALREQLSRLRRQDAGLKTHLDQLDQQISELQLDVSRSSCEALDSDSRPSSGFYELSDAGSCSLSTSCASVCSDRLSPSLGSWLPVFQPSKSRSGIGDWRPRSADETTVPAWSPQLTEDSRLLHGAEGTGRLTGMFRPRPVSTGDLERVLPADVGLQRAGTDAAHLLGQGIEIPAHALDPTYQRDLVARGGQEVYPYPSPLHAVALQSPLFALPKEAPCFDICSPPQEPPLVPVDENRTQPEPIRELGSAEAYIHRLLHLRGQELPLRDVGQEQGGDTAAFPPKPCGQRSESTCQLEKQACGADRGGLKLGRGAAKDSLKQHGPVSLVGAEPLSSPLKEETIPWNPCVHGDNTVGSSPCSQAQQPLNDCGQGPVLSPSRVLGTESPPLAPEPFAYTSCTTGETSPVKLRMGFSQNKAVKVRRRVSEKVPRLGKQLPPQPERQRVTERDPSRPHQGGLSRRPTLAREPPGRSCSESTLYPVPFLVPVVVAQRESYPTSPQAFFPMEAALLSSAARRKQRRWQSTMEISAKAGSVSQPGPSMGLPRSPAKRGSGPRAQSRPTLARQDACARCESDPSEHSADCTSLYHSTIAETSEDEEASDHTANRFGDESSSNDSEGCFRGSRRRLAIGSAEAGQGGWAWPRVPPQQPSRAPGNTRPPLPPVPKLCRIKASKALKKKIRRFQPAALKVMTMV
luciferase reporter driven by the Amelx 2.2 kb promoter in cells co-transfected with PITX2A and Dact2: fold activation by PITX2A with Dact2 (∼22-fold without Dact2): 14 fold activation
